In patent US20190300605A1 (Pfizer, published 2019):

T1: recombinant mouse MAdCAM (mouse, UniProt Q61826 22-365)
T1 sequence (looked up): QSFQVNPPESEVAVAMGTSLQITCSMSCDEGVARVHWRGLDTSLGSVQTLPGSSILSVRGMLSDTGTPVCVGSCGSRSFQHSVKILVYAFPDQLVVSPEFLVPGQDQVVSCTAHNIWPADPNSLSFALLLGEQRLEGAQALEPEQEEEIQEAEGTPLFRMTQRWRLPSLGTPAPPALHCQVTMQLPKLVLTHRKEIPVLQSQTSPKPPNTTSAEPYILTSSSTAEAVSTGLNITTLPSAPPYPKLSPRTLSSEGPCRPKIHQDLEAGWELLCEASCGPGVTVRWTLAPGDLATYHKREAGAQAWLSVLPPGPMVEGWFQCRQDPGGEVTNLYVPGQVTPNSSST

T2: human MAdCAM (full length) (human, UniProt Q13477 19-382)
T2 sequence (looked up): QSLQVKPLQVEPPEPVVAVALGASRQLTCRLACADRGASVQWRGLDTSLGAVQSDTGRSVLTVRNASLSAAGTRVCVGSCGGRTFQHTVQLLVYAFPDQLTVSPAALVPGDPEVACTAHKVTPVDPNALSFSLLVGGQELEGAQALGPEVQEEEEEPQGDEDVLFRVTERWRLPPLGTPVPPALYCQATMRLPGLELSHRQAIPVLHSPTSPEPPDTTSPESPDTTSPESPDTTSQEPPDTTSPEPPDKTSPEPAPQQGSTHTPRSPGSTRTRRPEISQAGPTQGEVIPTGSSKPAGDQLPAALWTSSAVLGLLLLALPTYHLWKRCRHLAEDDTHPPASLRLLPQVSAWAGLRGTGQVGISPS

T3: chimeric cynomolgus/human MAdCAM (cynomolgus; human, UniProt Q13477 226-382, limits assumed)
T3 sequence: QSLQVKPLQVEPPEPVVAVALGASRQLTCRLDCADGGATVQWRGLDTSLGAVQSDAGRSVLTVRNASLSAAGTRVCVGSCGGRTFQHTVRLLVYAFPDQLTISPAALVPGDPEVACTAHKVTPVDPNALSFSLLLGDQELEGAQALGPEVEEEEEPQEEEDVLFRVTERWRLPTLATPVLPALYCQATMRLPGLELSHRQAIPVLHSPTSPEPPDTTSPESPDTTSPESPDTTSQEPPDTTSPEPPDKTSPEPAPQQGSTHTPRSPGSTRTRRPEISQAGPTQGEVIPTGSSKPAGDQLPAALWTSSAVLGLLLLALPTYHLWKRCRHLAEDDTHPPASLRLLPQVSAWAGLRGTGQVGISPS


What was measured:
[1] = molecular target: T1, recombinant mouse MAdCAM; experiment: ELISA
[2] = molecular target: MAdCAM-IgG1 Fc fusion protein (human); experiment: cell-based or functional assay
[3] = molecular target: T2, human MAdCAM (full length); experiment: cell-based or functional assay
[4] = molecular target: T3, chimeric cynomolgus/human MAdCAM; experiment: cell-based or functional assay
[5] = molecular target: MAdCAM-IgG1 Fc fusion protein (human); experiment: cell-based or functional assay; remark: listed apart in the source
[6] = molecular target: T4, MAdCAM-IgG1 Fc fusion protein (human); experiment: SPR BIAcore protocol 1: mAb captured, MAdCAM-IgG1 Fc injected
T4 construct: Made in CHO-DHFR cells; also called MAdCAM-IgFc
Description: To perform kinetic analyses, a high density mouse anti-human (IgG₂ and IgG₄) antibody surface over a CMS BIAcore sensor chip was prepared using routine amine coupling. Hybridoma supernatants were diluted 10, 5, 2-fold in HBS-P (10 mM HEPES pH 7.4, 150 mM NaCl, 0.005% Surfactant P20) running buffer containing 100 μg/mL BSA and 10 mg/mL carboxymethyldextran or used neat. Each mAb was captured onto a separate surface using a […] contact time and a 5 mM wash for stabilization of the mAb baseline. MAdCAM-IgG₁ Fc (141 nM) fusion protein was then injected at over all surfaces for one minute, followed by a 3 mM dissociation. The data were normalized for the amount of antibody captured on each surface and evaluated with global fit Langmuir 1:1, using baseline drift models available on the BIAevaluation software provided by BIAcore.

[7] = molecular target: T4, MAdCAM-IgG1 Fc fusion protein; experiment: SPR BIAcore protocol 2: mAb amine-coupled, MAdCAM-IgG1 Fc injected
Description: Affinity-purified mAb were immobilized onto the dextran layer of a CMS biosensor chip using amine coupling. […] Samples of MAdCAM-IgG₁ Fc fusion protein in running buffer were prepared at concentrations ranging from 0.2-55 nM (a 0 nM solution comprising running buffer alone was included as a zero reference). Samples were randomized and injected in duplicate for 3 mM each across 4 flow cells using HBS-EP (10 mM HEPES pH 7.4, 150 mM NaCl, 3 mM EDTA, 0.005% Surfactant P20) as running buffer. A flow rate of 100 μL/min was used to minimize mass transport limitations. Dissociation of MAdCAM-IgG₁ Fc fusion protein was monitored for 180 mins, the surface regenerated by a 6 sec injection of 25 mM H₃PO₄ (50 μL/min), or 10 mM (6.22.2), 20 mM (6.67.1, 6.73.2, 6.77.1) to 25 mM (6.34.2) and 45 mM NaOH (6.14.2) and the data analysed using the BIAevaluation (v3.1) software package.

Row | binding result [1] | Mean IC50, JY cell adhesion to MAdCAM IgG1 Fc fusion [2] [µg/mL] | Mean IC50, JY cell adhesion, MAdCAM FlpIn CHO Assay [3] [µg/mL] | Functional IC50, cynomolgus/human MAdCAM-CHO/JY adhesion assay [4] [µg/mL] | MAdCAM IgG1 Fc fusion Assay Mean IC50 (Parent) [5] [µg/mL] | Kd [6] [pM] | koff [6] [s⁻¹] | kon [6] [M⁻¹ s⁻¹] | Kd [7] [pM] | koff [7] [s⁻¹] | kon [7] [M⁻¹ s⁻¹] | Binder
1 | no binding | 0.013 | 0.285 | 0.47 | 0.013 | 15.8 | 1.9e-05 | 1.2e+06 | < 15 | < 5e-06 | 330000 | anti-MAdCAM monoclonal antibody 6.34.2 (antibody, human IgG4, kappa, V domains shown, human IgG4 kappa from hybridoma 6.34.2) VH: QVQLVESGGGVVQPGRSLRLSCAASGFTFSSYGMHWVRQAPGKGLEWVAVISNDGNNKYYADSVKGRFTISRDNSKNTLYLQMNSLSAEDTAVYYCARDSTAITYYYYGMDVWGQGTTVTVSS VL: DIQMTQSPSSLSASVGDRVTITCRASQNISSYLNWFQQKPGKAPKLLIYAASGLKRGVPSRFSGSGSGTDFTLTIRTLQPDDFATYSCHQSYSLPFTFGPGTKVDIKR
2 | no binding | 0.021 | 0.574 | 0.96 | 0.021 | 271 | 0.00026 | 960000 | 80 | 1.2e-05 | 150000 | anti-MAdCAM monoclonal antibody 7.26.4 (antibody, human IgG2, kappa, V domains shown, human IgG2 kappa from hybridoma 7.26.4) VH: QVQLVQSGAEVKKPGASVKVSCEASGYTFTSYGIDWVRQAPGQGLEWMGWISVYSGNTNYAQKLQGRVTMSTDTSTSTAYMELRSLRSDDTAVYYCAREGSSSSGDYYYGMDVWGQGTTVTVSS VL: DIVMTQTPLSLSVTPGQPASISCKSNQSLLYSDGKTYLFWYLQKPGQPPQLLIYEVSNRFSGVPDRFSGSGSGTDFTLKISRVEAEDVGVYYCMQSIQLPWTFGQGTKVEIKR
3 | no binding | 0.013 | 0.298 | 0.75 | 0.013 | ≤ 17 | ≤ 1e-05 | 590000 | < 20 | < 5e-06 | 240000 | anti-MAdCAM monoclonal antibody 6.67.1 (antibody, human IgG4, kappa, V domains shown, human IgG4 kappa from hybridoma 6.67.1) VH: QVQLQESGPGLVKPSETLSLTCTVSGDSISSNYWSWIRQPAGKGLEWIGRIYTSGGTNSNPSLRGRVTILADTSKNQFSLKLSSVTAADTAVYYCARDRITIIRGLIPSFFDYWGQGTLVTVSS VL: not shown
4 | no binding | 0.018 | 0.573 | 0.83 | 0.018 | 9.3 | 1.4e-05 | 1.5e+06 | 3.8 | 8.7e-07 | 230000 | anti-MAdCAM monoclonal antibody 6.22.2 (antibody, human IgG4, kappa, V domains shown, human IgG4 kappa from hybridoma 6.22.2) VH: QVQLVESGGGVVQPGRSLRLSCAASGHTFSSDGMHWVRQAPGKGLEWVAIIWYDGSNKYYADSVKGRFTISRDNSKNTLYLQMNSLRAEDTAVYYCARDPGYYYGMDVWGQGTTVTVSS VL: EIVLTQSPDFQSVTPKEKVTITCRASQRIGSSLHWYQQKPDQSPKLLIKYASQSFSGVPSRFSGSGSGTNFTLTINGLEAEDAATYYCHQSGRLPLTFGGGTKVEIKR
